Data reported in US20230357354A1, “CD38-BINDING CD31 PEPTIDES AND USES THEREOF” (ENCEFA, priority 2020, published 2023).

target: recombinant His-tagged CD38 (Homo sapiens, UniProt P28907); assay: Pepscan-based ELISA of His-tagged CD38 on CD31 peptide arrays; assay type: binding; conditions: mimic type BET (β-turn mimic, mP2 CLIPS); sample with the highest signal
Text: Different sets of sCD31 peptides were synthesized according to the following designs. Note that actual order of peptides on mini-cards in some was randomized. • Set #1 • Mimic type: linear • Label: LIN15 • Linear peptides of 15 consecutive amino acid residues in length, derived from the target sequence of sCD31 with an offset of […]. • Set #2 • Mimic type: single loop (mP2 CLIPS) • Label: LOOP7 • Constrained peptides of 9 amino acid residues in length. On positions 2-8 are incorporated 7 consecutive amino acid residues derived from the target sequence of sCD31 with an offset of 1.3 residues. Cys residues were inserted on positions 1 and 9 and joined by mP2 CLIPS in order to create a loop mimic. Native Cys residues, if present, were replaced by Ser residues. • Set #3 • Mimic type: single loop, (mP2 CLIPS) • Label: LOOP15 • Constrained peptides of 17 amino acid residues in length. On positions 2-16 are incorporated 15 consecutive amino acid residues derived from the target sequence of sCD31 with an offset of […]. Cys residues were inserted on positions 1 and 17 and joined by mP2 CLIPS in order to create a loop mimic. Native Cys residues, if present, were replaced by Ser residues. • Set #4 • Mimic type: β-turn peptide mimics (mP2 CLIPS) • Label: BET • β-turn peptide mimics of 22 amino acid residues in length. On positions 2-21 are incorporated 20 consecutive amino acid residues derived from the target sequence of sCD31 with an offset of 1.3 residues. Residues on positions 11 and 12 are replaced by a Pro-Gly motif in order to induce the β-turn formation. Cys residues were inserted on positions 1 and 22 and joined by mP2 CLIPS in order to stabilize the mimic. Native Cys residues, if present, were replaced by Ser residues.
To reconstruct epitopes of sCD31, a library of peptide-based peptide mimics was synthesized using Fmoc-based solid-phase peptide synthesis. An amino functionalized polypropylene support was obtained by grafting with a hydrophilic polymer formulation, followed by reaction with t-butyloxycarbonyl-hexamethylenediamine (BocHMDA) using dicyclohexylcarbodiimide (DCC) with N-hydroxybenzotriazole (HOBt) and subsequent cleavage of the Boc-groups using trifluoroacetic acid (TFA).
Standard Fmoc-peptide synthesis was used to synthesize peptides on the amino-functionalized solid support by custom modified JANUS liquid handling stations (Perkin Elmer).
Synthesis of structural mimics was done using CLIPS technology. CLIPS technology allows to structure peptides into single loops, double loops, triple loops, sheet-like folds, helix-like folds, and combinations thereof. CLIPS templates are coupled to cysteine residues. The side-chains of multiple cysteines in the peptides are coupled to one or two CLIPS templates. For example, a 0.5 mM solution of the P2 CLIPS (2,6-bis(bromomethyl)pyridine) is dissolved in ammonium bicarbonate (20 mM, pH 7.8)/acetonitrile (1:3, v/v). This solution is added onto the peptide arrays. The CLIPS template binds to side-chains of two cysteines as present in the solid-phase bound peptides of the peptide-arrays (455 wells plate with 3-µL wells). The peptide arrays are gently shaken in the solution for 30 to 60 minutes while completely covered in solution.
Finally, the peptide arrays are washed extensively with excess of H2O and sonicated in disrupt-buffer containing 1% SDS / 0.1 % 2,2′-(ethylenedioxy)diethanethiol in PBS (pH 7.2) at 70° C. for 30 minutes, followed by sonication in H2O for another 45 minutes.
The binding of the sample (recombinant His-tagged CD38; 9 µg/mL and 20 µg/mL) to each of the synthesized peptides was tested in a pepscan-based ELISA. The peptide arrays were incubated with primary sample solution (overnight at 4° C.). […]

Value (binding intensity of His-tagged CD38), BET conformational peptide array	Substance
1497 mAU	10 (CMVKLKREKNPGDQNFVILEFC; Human sCD31 peptide) [compound 10]
943 mAU	13 (CVESSRISKVPGIVVNITELFC; Human sCD31 peptide) [compound 13]
739 mAU	14 (CPPANFTIQKPGTIVSQTQDFC; Human sCD31 peptide) [compound 14]
649 mAU	16 (CSEVLRVKVIPGVDEVQISILC; Human CD31 peptide) [compound 16]

same assay, conditions: mimic type LIN15; sample with the highest signal (His-tagged CD38 9 or 20 µg/mL)

Value (binding intensity of His-tagged CD38), LIN15 linear peptide array	Substance
1230 mAU	6 (NSRDQNFVILEFPVE; Human sCD31 peptide) [compound 6]
355 mAU	30 (KPQHQMLFYKDDVLF) [compound 30]
460 mAU	32 (QHQMLFYKDDVLFYN) [compound 32]
441 mAU	33 (HQMLFYKDDVLFYNI) [compound 33]
451 mAU	36 (MLFYKDDVLFYNISS) [compound 36]
383 mAU	38 (LFYKDDVLFYNISSM) [compound 38]
440 mAU	74 (KREKNSRDQNFVILE) [compound 74]
453 mAU	75 (REKNSRDQNFVILEF) [compound 75]
502 mAU	77 (KNSRDQNFVILEFPV) [compound 77]
1021 mAU	78 (RDQNFVILEFPVEEQ) [compound 78]
963 mAU	80 (DQNFVILEFPVEEQD) [compound 80]
631 mAU	83 (NFVILEFPVEEQDRV) [compound 83]
168 mAU	100 (SSRISKVSSIVVNIT) [compound 100]
572 mAU	101 (RISKVSSIVVNITEL) [compound 101]
642 mAU	102 (ISKVSSIVVNITELF) [compound 102]
155 mAU	104 (KVSSIVVNITELFSK) [compound 104]
421 mAU	120 (NSNDPAVFKDNPTED) [compound 120]
410 mAU	121 (SNDPAVFKDNPTEDV) [compound 121]
402 mAU	122 (DPAVFKDNPTEDVEY) [compound 122]
333 mAU	123 (PAVFKDNPTEDVEYQ) [compound 123]
303 mAU	124 (VFKDNPTEDVEYQCV) [compound 124]
337 mAU	168 (KQKASKEQEGEYYCT) [compound 168]
316 mAU	169 (QKASKEQEGEYYCTA) [compound 169]
400 mAU	170 (ASKEQEGEYYCTAFN) [compound 170]
454 mAU	171 (SKEQEGEYYCTAFNR) [compound 171]
340 mAU	172 (EQEGEYYCTAFNRAN) [compound 172]

same assay, conditions: mimic type LOOP7 (single loop, mP2 CLIPS); sample with the highest signal

Value (binding intensity of His-tagged CD38), LOOP7 conformational peptide array	Substance
668 mAU	5 (CSTESYFIC; Human sCD31 peptide) [compound 5]
804 mAU	167 (CEDVEYQSC) [compound 167]

same assay, conditions: mimic type LOOP15 (single loop, mP2 CLIPS); sample with the highest signal

Value (binding intensity of His-tagged CD38), LOOP15 conformational peptide array	Substance
1110 mAU	9 (CRDQNFVILEFPVEEQC; Human sCD31 peptide) [compound 9]
965 mAU	164 (CNSRDQNFVILEFPVEC) [compound 164]
